# Test results from patent US20240343803A1 (SHANDONG SIMCERE BIOPHARMACEUTICAL, published 2024).
# T1: human PVRIG-mFc protein (Acro, PVG-H5253) (human, UniProt Q6DKI7 41-171, limits assumed)
# T1 construct: bought reagent; also called PVRIG-ECD-mFc
# T1 sequence (looked up): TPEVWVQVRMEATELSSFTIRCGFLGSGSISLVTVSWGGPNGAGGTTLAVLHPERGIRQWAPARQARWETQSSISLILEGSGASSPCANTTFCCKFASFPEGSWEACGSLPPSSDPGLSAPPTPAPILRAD
# T2: human PVRIG-his (AcroBiosystems, Cat NO. PVG-H52H4) (human, UniProt Q6DKI7 41-171, limits assumed)
# T2 construct: treated as the same protein; also called human PVRIG-His protein; Human PVRIG-His, Acro C227P1-9ARF1-T4
# T2 sequence (looked up): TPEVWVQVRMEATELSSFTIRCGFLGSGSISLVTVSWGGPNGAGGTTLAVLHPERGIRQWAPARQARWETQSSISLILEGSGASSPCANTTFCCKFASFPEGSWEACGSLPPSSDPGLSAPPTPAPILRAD
# T3: human PVRIG-his (AcroBiosystems, Cat NO. PVG-H52H4) (human, UniProt Q6DKI7 41-171, limits assumed)
# T3 construct: also called human PVRIG protein
# T3 sequence (looked up): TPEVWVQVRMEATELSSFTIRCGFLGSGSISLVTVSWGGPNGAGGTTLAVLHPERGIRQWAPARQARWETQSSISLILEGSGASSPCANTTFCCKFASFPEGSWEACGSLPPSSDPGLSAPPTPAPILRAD
# T4: cynomolgus monkey PVRIG (Novoprotein, Cat NO. C09B) (cynomolgus monkey, UniProt A0A2K5WVV8 41-171)
# T4 construct: also called cynomolgus monkey PVRIG protein
# T4 sequence: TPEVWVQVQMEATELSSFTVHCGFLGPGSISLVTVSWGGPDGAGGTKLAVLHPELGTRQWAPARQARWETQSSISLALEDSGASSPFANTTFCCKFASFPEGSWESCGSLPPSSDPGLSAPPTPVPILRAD
# T5: human PVRIG on FlpinCHO-PVRIG cells (human, UniProt Q6DKI7 41-326)
# T5 construct: whole, on cells
# T5 sequence (looked up): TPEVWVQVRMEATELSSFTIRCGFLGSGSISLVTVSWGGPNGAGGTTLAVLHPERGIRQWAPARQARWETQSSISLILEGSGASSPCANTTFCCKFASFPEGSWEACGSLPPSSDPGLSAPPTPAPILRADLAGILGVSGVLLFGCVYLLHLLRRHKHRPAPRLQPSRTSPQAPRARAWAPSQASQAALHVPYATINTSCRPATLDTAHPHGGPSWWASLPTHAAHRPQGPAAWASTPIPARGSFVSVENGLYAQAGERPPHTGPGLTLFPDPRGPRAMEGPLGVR
# Columns and labels:
# [1] = molecular target: T1, human PVRIG-mFc protein (Acro, …); test: competition FACS; blocked: human PVRIG-mFc binding to CHO-K1-CD112 cells
# Method: After incubation, the cells were added with staining buffer (2% FBS+PBS) to stop staining, centrifuged at 350×g to remove the supernatant, washed twice and resuspended with staining buffer to a density of 1×10⁶ cells/mL. The cells were plated into a 96-well plate (50 μL of cell suspension per well) for further use. A working solution of human PVRIG-mFc protein (Acro, PVG-H5253) prepared with staining buffer, 1 μg/mL (four-fold concentration), was added into a 96-well plate (50 μL PVRIG-mFc working solution per well). […] The diluted antibodies were added to the well containing 50 μL of PVRIG-mFc. The plate was placed on a microplate shaker at 400 rpm for 1 minute to fully mix the antibodies and PVRIG-mFc proteins, and then incubated at 4° C. for 30 minutes. After the incubation, the cell suspension prepared above (100 μL) was added into the wells, gently mixed with the pipette tip and incubated at 4° C. for 30 minutes. After the incubation, the cells were washed twice with staining buffer (200 μL per well) and centrifuged at 350×g for 5 minutes to discard the supernatant. The PE goat anti-mouse IgG Fc antibody (Biolegend, 405337) was diluted 250 times with staining buffer, added into the washed wells (100 μL per well), mixed well, and stained at 4° C. for 30 minutes. After staining, the cells were washed twice with staining buffer, finally resuspended with 200 μL staining buffer and analyzed by flow cytometry (BD, Canto II). The weaker the fluorescence signal, the stronger the ability of the antibodies blocks the binding of CHO-K1 human CD112 cells to the PVRIG-mFc protein. An antibody binding curve was drawn with concentration of antibodies as the abscissa and the corresponding Mean Fluorescence Intensity (MFI) as the ordinate. The IC50 value of the antibodies and the AUC value of the binding curve were calculated by using a Four Parameter Logistic Fit (GraphPadPrism9). The smaller the IC50 value and AUC value, the stronger the ability of the antibodies competes with CHO-K1-CD112 cells to bind to human PVRIG-mFc protein.
# [2] = molecular target: T2, human PVRIG-his (AcroBiosystems, Cat …); test: competition ELISA on coated human PVRIG-his; blocked ligand human PVRL2-mFc
# Method: (§1) The ELISA plate was pre-coated with 100 μL/well of 0.5 μg/mL human PVRIG-his protein (AcroBiosystems, Cat NO. PVG-H52H4). The tested anti-PVRIG antibodies were diluted from the highest concentration of 16 nM (two-fold concentration). The diluted antibodies were mixed with 18 ng/ml human PVRL2-mFc (AcroBiosystems, Cat NO. CD2-H5257) in equal volume, added into the plate (100 μL/well), and incubated with shaking at room temperature for 2.0 hours. […] A HRP substrate, TMB (Thermo, Cat NO. 34029) was added into wells after washing the plate again for color development. After adding a termination solution to terminate the reaction, the absorbance value was read by a microplate reader (MD i3×). An inhibiting curve was drawn with concentration of antibodies as the abscissa and the corresponding OD value as the ordinate. The IC50 value was calculated by using a Four Parameter Logistic Fit (GraphPadPrism9). The smaller the IC50 value, the stronger the ability of the antibodies inhibits the binding between PVRIG and PVRL2. The positive and negative controls are the same as in Example 8.
# [3] = molecular target: T3, human PVRIG-his (AcroBiosystems, Cat …); test: competition ELISA, PVRIG-His coated, competitor human PVRL2-mFc; parameters: AUC: unit not given here
# Method: as §1
# The methods refer to Example 11. The inhibiting activity of the humanized antibodies was normalized to the corresponding parental antibodies. If the percentage value is higher than 100%, the inhibiting effect of humanized antibodies is better than that of parental antibodies.
# [4] = molecular target: T4, cynomolgus monkey PVRIG (Novoprotein, …); test: ELISA, antigen coated
# Method: (§2) The ELISA plate was pre-coated with 100 μL/well of 0.5 μg/mL human PVRIG-his (AcroBiosystems, Cat NO. PVG-H52H4) or cynomolgus monkey PVRIG (Novoprotein, Cat NO. C09B). The tested anti-PVRIG humanized antibodies were serially diluted (initial concentration 3 nM, 3-fold serial dilution), added into the plate (100 μL/well) and incubated with shaking at room temperature for 1.5 hours. […] A HRP substrate, TMB (Thermo, Cat NO. 34029) was added into wells after washing the plate again for color development. After adding a termination solution to terminate the reaction, the absorbance value was read by a microplate reader (MD i3×). An antibody binding curve was drawn with concentration of antibodies as the abscissa and the corresponding OD value as the ordinate. The EC50 value was calculated by using a Four Parameter Logistic Fit (GraphPadPrism9). The smaller the EC50 value, the stronger the ability of the antibodies binds to human or cynomolgus monkey PVRIG. The binding effect of the humanized antibodies was normalized to the corresponding parental antibodies. If the percentage value is higher than 100%, the binding effect of humanized antibodies is better than that of parental antibody.
# [5] = molecular target: T3, human PVRIG-his (AcroBiosystems, Cat …); test: ELISA, antigen coated
# Method: as §2
# [6] = molecular target: T5, human PVRIG on FlpinCHO-PVRIG cells; test: FACS, FlpinCHO-PVRIG cells
# Method: The Ham's F12 (Gibico, 21127-022) complete medium containing 10% FBS was then added to terminate the digestion and acquire cell suspension. After counting with a cell counter (Beckman Coulter, Vi-CELL), an appropriate amount of cell suspension was centrifuged at 350×g to remove the supernatant, washed twice with PBS, stained with Zombie violet (Biolegend, 423114) and incubated at room temperature for 20 minutes. After incubation, the cells were added with staining buffer (2% FBS+PBS) to stop staining, centrifuged at 350×g to remove the supernatant, washed twice and resuspended with staining buffer to a density of 2×10⁶ cells/mL. The cells were plated into a 96-well plate (50 μL of cell suspension per well) for further use. The antibodies were diluted from the highest concentration of 46 nM (two-fold concentration) with staining buffer by 3.3-fold serial dilution. The diluted antibodies were added to the well containing 50 μL of cell suspension. The plate was placed on a microplate shaker at 400 rpm for 1 minute to fully mix the antibodies and cells, and then incubated at 4° C. for 30 minutes. After the incubation, the cells were washed twice with staining buffer (200 μL per well) and centrifuged at 350×g for 5 minutes to discard the supernatant. The PE goat anti-human IgG Fc antibody (ebioscience, 12-4998-82) was diluted 250 times with staining buffer, added into the washed wells (100 μL per well), mixed well, and stained at 4° C. for 30 minutes. After staining, the cells were washed twice with staining buffer, finally resuspended with 200 μL staining buffer and analyzed by flow cytometry (BD, Canto II). The stronger the signal, the stronger the ability of the antibodies binds to PVRIG. An antibody binding curve was drawn with concentration of antibodies as the abscissa and the corresponding Mean Fluorescence Intensity (MFI) as the ordinate. The AUC value of the curve was calculated by using a Four Parameter Logistic Fit (GraphPadPrism9). The stronger the AUC value, the stronger the ability of the antibodies binds to FlpinCHO-PVRIG and FlpinCHO-cyno PVRIG. […] The binding activity of the antibodies was normalized to the positive control COM701-hIgG1 and SRF813-hIgG1.
# [7] = molecular target: T3, human PVRIG-his (AcroBiosystems, Cat …); test: SPR (BIAcore), antibody captured on Protein A chip, human PVRIG-His analyte
# Method: Biacore was used to detect the specific binding between anti-PVRIG antibody and human PVRIG protein. Protein A chip was used in the BIAcore assay. The time required for the chip to capture the diluted antibody and saturate the binding antigen to reach Rₘₐₓ (Maximum binding capacity, 50 RU) was measured by manual run. […] The affinity of antibody for antigen was measured by multi-cycle kinetics. In each cycle, the antibodies were injected prior to the injection of gradient concentraions of PVRIG proteins allowing the occurrence of antibody-antigen association and dissociation After each cycle, the Protein A chip was regenerated by Glycine, pH 1.5 (to remove the proteins on the chip). The affinity of antibody for antigen was calculated by BIAcore T200 analysis software.
# The methods refer to Example 10.
binder,measurement,setting,value
"PVRIG-A15 (VHH, tested as VHH-hinge-CH2-CH3 (human IgG1-Fc); not shown: human IgG1 hinge-CH2-CH3) VHH: QVQLVESGGGLVQAGGSLRLSCVASGRTFSANTMAWFRQAPGKEREFVAYTRWTDDNTDYASYADFVKGRFTAFRDNTRNTMYLQMNRLRPEDTAVYYCAAATTRGTYYSAGDYNSWGQGTQVTVSS",IC50 (read off the curve),[1],~1 nM
same,IC50 (read off the curve),[2],~2 nM
"PVRIG-A30 (VHH, tested as VHH-hinge-CH2-CH3 (human IgG1-Fc); not shown: human IgG1 hinge-CH2-CH3) VHH: QVQLVESGGGLVQPGGSLRLSCAASGRTDSMNVMGWFRRAPGKEREFVARIKWNGDTTYTAYADFLKGRFTLYGAVARNRVYLQMNSLQPEDTAVYYCAAGEVSGSSYSPDYGMHYWGKGTLVTVSS",IC50 (read off the curve),[1],~1 nM
same,IC50 (read off the curve),[2],~2 nM
"PVRIG-A105-H3a (Fc fusion, humanized variant of PVRIG-A105; also called A105.VH3a; not shown: constant part not restated for the humanized forms; parents are VHH-hinge-CH2-CH3 of human IgG1; detected by anti-human) EVQLVESGGGLVQPGGSLRLSCAASGRTFDRHTMTWFRQAPGKEREFVATASRIPGDTYYVDSVKGRFTISRDNAKNSVYLQMNSLRAEDTAVYYCAATSAYSSEVDSYEKGSWYDNWGQGTMVTVSS",% relative activity (AUC) parental antibody/test antibody,[3],47.2%
same,AUC,[3],5.37
same,% relative activity parental antibody/tested antibody,[4],2.53%
same,EC50,[4],1.27 nM
same,% relative activity parental antibody/tested antibody,[5],0.99%
same,EC50,[5],7.41 nM
same,AUC % to COM701-hIgG1,[6],15.9%
same,AUC % to SRF813-hIgG1,[6],23.9%
same,AUC % to parental Ab,[6],12.8%
"PVRIG-A105-H2 (Fc fusion, humanized variant of PVRIG-A105; also called A105 VH2; not shown: constant part not restated for the humanized forms; parents are VHH-hinge-CH2-CH3 of human IgG1; detected by anti-human) EVQLVESGGGLVQPGGSLRLSCAASGRTFDRHTMTWFRQAPGKEREFVATASRIPGDTYYVDSVKGRFTISRDNAKNSLYLQMNSLRAEDTAVYYCAATSAYCSEVDCYEKGSWYDNWGQGTMVTVSS",% relative activity (IC50) parental antibody/test antibody,[3],128%
same,IC50,[3],0.577 nM
same,Kd,[7],0.693 nM
same,koff,[7],0.00092 s⁻¹
same,kon,[7],1.33e+06 M⁻¹ s⁻¹
same,EC50,[4],0.0343 nM
same,EC50,[5],0.0515 nM
"PVRIG-A105-H5 (Fc fusion, humanized variant of PVRIG-A105; also called A105.VH5; not shown: constant part not restated for the humanized forms; parents are VHH-hinge-CH2-CH3 of human IgG1; detected by anti-human) EVQLVESGGGLVQPGGSLRLSCAASGRTFDRHTMTWFRQAPGKEREFVATASRIPGDTYYVDSVKGRFTISRDNAKNSLYLQMNSLRAEDTAVYYCAATSAYCSEVDCYEKGSWYDNWGQGIQVTVSS",% relative activity (IC50) parental antibody/test antibody,[3],114%
same,IC50,[3],0.647 nM
same,Kd,[7],0.818 nM
same,koff,[7],0.00091 s⁻¹
same,kon,[7],1.11e+06 M⁻¹ s⁻¹
same,EC50,[4],0.0377 nM
same,EC50,[5],0.0678 nM
"PVRIG-A60 (VHH, tested as VHH-hinge-CH2-CH3 (human IgG1-Fc); not shown: human IgG1 hinge-CH2-CH3) VHH: QVQLVESGGGLVQSGGSLRLSCAASGRTRSMYVMGWFRQAPGKEREFVGRIKWSGDTTYTSYADFVKGRFTLYGNQARNTVYLQMNSLKPEDAAVYYCNLRRLDGVNYWGKGTLVTVSS",IC50 (read off the curve),[1],~1 nM
same,IC50 (read off the curve),[2],~1 nM
"PVRIG-A113 (VHH, tested as VHH-hinge-CH2-CH3 (human IgG1-Fc); not shown: human IgG1 hinge-CH2-CH3) VHH: QLQLVESGGGLVQSGGSLRLSCAASGRTRSMYVMGWFRQAPGKEREFVGRIKWSGDTTYTSYADFVKGRFTLYGNQARNTVYLQMNSLKPEDTAVYYCAALPSDYDYRAASYGVDYWGKGTLVTVSS",IC50 (read off the curve),[1],~1 nM
same,IC50 (read off the curve),[2],~1 nM
